Earlier results, collected in paper PMC10451079.
Values belong to the substance of their own block, whether it stands above or below them.

Columns and labels:
[1] = biological target: NGALR 1-105 (Homo sapiens) (UniProt Q8WUG5)
[2] = biological target: NGALR (Mus musculus) (UniProt Q9D9E0); assay: ligand-cell binding, Scatchard
[3] = biological target: megalin (Homo sapiens) (UniProt P98164)
[4] = biological target: MC1R (UniProt Q01726)
[5] = biological target: MC3R (UniProt P41968)
[6] = biological target: MC4R (UniProt P32245); assay: saturation and competition binding
UniProt P32245, sequence (P32245 whole entry): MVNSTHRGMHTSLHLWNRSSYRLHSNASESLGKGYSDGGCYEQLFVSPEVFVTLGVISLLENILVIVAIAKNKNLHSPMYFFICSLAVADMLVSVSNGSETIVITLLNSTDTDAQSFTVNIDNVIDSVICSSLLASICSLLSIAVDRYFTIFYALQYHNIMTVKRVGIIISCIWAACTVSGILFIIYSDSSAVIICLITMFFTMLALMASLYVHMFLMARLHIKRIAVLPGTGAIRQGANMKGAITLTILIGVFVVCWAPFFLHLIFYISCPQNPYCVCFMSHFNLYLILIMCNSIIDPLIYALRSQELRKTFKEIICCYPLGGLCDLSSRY

[7] = biological target: LRP2 (megalin) (Homo sapiens) (UniProt P98164); assay: SPR

UniProt Q9D9E0, sequence (Q9D9E0 whole entry): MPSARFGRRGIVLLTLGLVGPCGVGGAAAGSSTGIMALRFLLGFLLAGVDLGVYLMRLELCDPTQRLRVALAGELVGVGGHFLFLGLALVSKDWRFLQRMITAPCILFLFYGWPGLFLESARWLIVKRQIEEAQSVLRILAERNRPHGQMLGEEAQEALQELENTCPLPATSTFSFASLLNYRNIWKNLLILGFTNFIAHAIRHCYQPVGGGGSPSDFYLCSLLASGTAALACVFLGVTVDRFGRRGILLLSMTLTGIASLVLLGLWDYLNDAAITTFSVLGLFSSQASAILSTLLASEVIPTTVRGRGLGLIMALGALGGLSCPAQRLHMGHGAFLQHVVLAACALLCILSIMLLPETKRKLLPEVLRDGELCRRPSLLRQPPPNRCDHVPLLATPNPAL
UniProt Q01726, sequence (Q01726 whole entry): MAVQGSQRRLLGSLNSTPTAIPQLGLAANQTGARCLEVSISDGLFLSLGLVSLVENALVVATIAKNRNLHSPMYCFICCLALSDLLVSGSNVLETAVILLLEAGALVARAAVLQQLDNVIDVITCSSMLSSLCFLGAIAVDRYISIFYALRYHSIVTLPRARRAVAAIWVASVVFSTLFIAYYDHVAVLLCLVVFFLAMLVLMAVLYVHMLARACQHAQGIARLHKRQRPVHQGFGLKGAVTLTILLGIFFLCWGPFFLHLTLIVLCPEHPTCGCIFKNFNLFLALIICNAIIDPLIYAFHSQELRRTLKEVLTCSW
UniProt Q8WUG5, sequence (Q8WUG5 1-105): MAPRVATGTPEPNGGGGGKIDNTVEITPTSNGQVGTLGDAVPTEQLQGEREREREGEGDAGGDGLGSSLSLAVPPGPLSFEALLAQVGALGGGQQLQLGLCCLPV
UniProt P41968, sequence (P41968 whole entry): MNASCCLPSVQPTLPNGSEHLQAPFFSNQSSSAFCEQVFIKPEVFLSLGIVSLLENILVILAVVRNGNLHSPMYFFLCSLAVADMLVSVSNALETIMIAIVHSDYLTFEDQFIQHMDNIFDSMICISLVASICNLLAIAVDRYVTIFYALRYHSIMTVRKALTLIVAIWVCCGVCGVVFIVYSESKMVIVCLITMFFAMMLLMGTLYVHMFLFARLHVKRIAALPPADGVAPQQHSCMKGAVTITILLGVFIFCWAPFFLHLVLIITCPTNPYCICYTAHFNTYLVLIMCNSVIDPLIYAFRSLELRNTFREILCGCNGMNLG

Substance: LCN2 (24p3) (from UniProt P11672)
Kd [2]: 0.092 nM

Substance: α1M (from UniProt P02760)
Kd [3]: 420 nM

Substance: LCN2 (from UniProt P11672)
Kd [4]: 87 nM
Kd [5]: 82.1 nM
Kd [6]: 51.4 nM

The remaining lines, values ahead:

Kd [1]: 20000 nM
Substance: LCN2 with ferric-enterobactin (from UniProt P80188)

Kd [7]: 60 nM
Substance: LCN2 (from UniProt P80188)
